# Results: article PMC10653809
# B1: AzoR (Escherichia coli K-12) (protein)
# chain: SKVLVLKSSILAGYSQSNQLSDYFVEQWREKHSADEITVRDLAANPIPVLDGELVGALRPSDAPLTPRQQEALALSDELIAELKAHDVIVIAAPMYNFNISTQLKNYFDLVARAGVTFRYTENGPEGLVTGKKAIVITSRGGIHKDGPTDLVTPYLSTFLGFIGITDVKFVFAEGIAYGPEMAAKAQSDAKAAIDSIVSA
# Substrate: COc1cc(S(=O)(=O)O)c(C)cc1N=Nc1c(O)ccc2cc(S(=O)(=O)O)ccc12
# Assay: purified protein
# Settings: 2,000 µM NADH, 20 µM FMN, 20 mM sodium phosphate buffer, 37°C, aerobic
protein,measurement,value
B1,Km,67.7 µM
